Test results: patent US20220195015A1 (published 2022)

B1: C052 (antibody, V domains shown)
VH: EVQLVESGGGLIRPGGSLRLSCAASGFSVSNNYMSWVRQAPGKGLEWVSVIYSGGTTYYADSVKGRFNISRDNSKNTVYLQMNSLRAEDTAVYYCAREGDVEGYYDFWSGYSRDRYYFDYWGQGALVTVSS
VL: QSALTQPASVSGSPGQSITISCTGTSSDVGGYNYVSWYQQHPGKAPKLMIYDVSNRPSGVSNRFSGSKSGNTASLTISGLQAEDEADYYCNSYTSNNTRVFGTGTKVTVL
B2: C053 (antibody, V domains shown)
VH: EVQLVESGGGLIQPGGSLRLSCAASGFIVSNNYMSWVRQAPGKGLDWVSVIYSGGTTYYADSVKGRFTISRDNSKNTLYLQMNSLRAEDTAVYYCAREGDVEGYHDSWSGYSRDRYYFDYWGQGTLVTVSS
VL: QSALTQPASVSGSPGQSITISCTGSSSDVGGYNFVSWYQQHPGRAPKLMIYDVSNRPSGVSNRFSGSKSGNTASLTISGLQVEDEADYYCSSYTNNNTRVFGTGTKVTVL
B3: C058 (antibody, V domains shown)
VH: QVQLVQSGAEVKKPGASVKVSCKASGYIFTDYSMHWVRQAPGQGLEWIGWVNPNSGGTNYAQKFQGWVTMARDTSITTVYMELSRLKSDDTAVYFCARGPLFHRLVYDFWSGYHDGFDMWGQGTMVTVSS
VL: QSALTQPASVSGSPGQSITISCTGTSSDVGGYKFVSWYQQHPGKAPKLMIYEVSNRPSGVSNRFSGSKSGNTASLTISGLQAEDEADYYCNSYTSSSTWVFGGGTKLTVL
B4: C054 (antibody, V domains shown)
VH: EVQLVESGGGLIQPGGSLRLSCAASGFTVSNNYMSWVRQAPGKGLEWVSVIYSGGSTYDADSVKGRFTISRDNSKNTLYLQMNSLSAEDTAVYYCAREGDVEGYYDFWSGYSRDRYYFDYWGQGTLVTVSS
VL: QSALTQPASVSGSPGQSITISCTGTSSDVGGYNYVSWYQQHPGKAPKLMIYDVSNRPSGVSNRFSGSKSGNTASLTISGLQAEDEADYYCSSYTSSSARVFGTGTKVTVL
B5: C057 (antibody, V domains shown)
VH: QVQLVQSGAEVKRPGASVKLSCKASGYIFTDYSIHWVRQAPGQGLEWMGWVNPNSGGGNSAQKFMDWVTMARDTSITTVYMELSRLRSDDTAVYYCARGPLFHKLVYDSWSGYHDGFDIWGQGTMVTVSS
VL: QSALTQPASVSGSPGQSITISCTGTSSDVGAYKFVSWYQQHPGKAPQLIIYEVSNRPSGVSNRFSGSKSGNTASLTISGLQAEDEADYYCSSYTNASTWVFGGGTELTVL
B6: C055 (antibody, V domains shown)
VH: EVQLVESGGGLVQPGGSLRLSCAASGFSVSTKYMTWVRQAPGKGLEWVSVLYSGRTDYYADSVKGRFTISRDSSKNILYLQMSSLRVEDTGFYYCARDSSEVRDHPGHPGRSVGAFDIWSQGTMVTVSS
VL: QSALTQPASVSGSPGQSIAISCTGTSNDVGSYTLVSWYQQYPGKAPKLLIFEDSQRSSGISNRFSGSKSGNTASLTISGLRGEDEADYYCCSYAGSHTFVFGGGTKVTVL
B7: C060 (antibody, V domains shown)
VH: EVQLVESGGGLVQPGGSQRLSCAASGFTVSSNYMSWIRQAPGKGLEWVSVIYSGGSAYYVDSVKGRFTISRDNSKNTLYLQMNSLRPEDTAVYYCARIANYMDVWGKGTTVTVSS
VL: EIVMTQSPATLSVSPGERATLSCRASQSVSSHLAWYQQKPGQAPRLLIYGASTRATGIPTRFSGSGSGTEFTLTISSLQSEDFAVYYCQQYNNWPPLTFGGGTKVEIK
B8: C059 (antibody, V domains shown)
VH: QVQLVQSGAEVKKPGASIKVSCKASGYTFTDYSMHWVRQAPGQGLEWMGWINPNSGGTKYAQKFQGWVTMTRDMSITTVYMELTRLRSDATAVFYCARGPLFHKLVYDSWTGYHDGFDIWGQGTMVTVSS
VL: QSALTQPASVSGSPGQSITISCTGTSSDVGGYNYVSWYQHYPGKAPKLMIYEVTHRPSGVSNRFSGSKSGNTASLTISGLQAEDEADYYCSSSTNSSTWVFGGGTKMTVL

The binders below were run against SARS-CoV-2 spike protein receptor binding domain (RBD) (SARS-CoV-2, UniProt P0DTC2 319-539) (assay: ELISA on coated RBD protein).
B1 gave an EC50 of 1.23 ng/mL. In the case of B2, the EC50 is reported as 1.53 ng/mL. For B3, the EC50 was 2.28 ng/mL. In the case of B4, the EC50 is reported as 1.58 ng/mL. B5 gave an EC50 of 2.31 ng/mL. Binder B6 has an EC50 of 1.25 ng/mL. Binder B7 has an EC50 of 43.5 ng/mL. Binder B8 has an EC50 of 1.88 ng/mL.
